Data taken from patent publication US11833164B2, “Methods of treating Fabry disease in patients having a mutation in the GLA gene” (Amicus Therapeutics, Inc., priority 2019, dated 2023).

B1: S364C (protein)
chain: MQLRNPELHLGCALALRFLALVSWDIPGARALDNGLARTPTMGWLHWERFMCNLDCQEEPDSCISEKLFMEMAELMVSEGWKDAGYEYLCIDDCWMAPQRDSEGRLQADPQRFPHGIRQLANYVHSKGLKLGIYADVGNKTCAGFPGSFGYYDIDAQTFADWGVDLLKFDGCYCDSLENLADGYKHMSLALNRTGRSIVYSCEWPLYMWPFQKPNYTEIRQYCNHWRNFADIDDSWKSIKSILDWTSFNQERIVDVAGPGGWNDPDMLVIGNFGLSWNQQVTQMALWAIMAAPLFMSNDLRHISPQAKALLQDKDVIAINQDPLGKQGYQLRQGDNFEVWERPLSGLAWAVAMINRQEIGGPRCYTIAVASLGKGVACNPACFITQLLPVKRKLGFYEWTSRLRSHINPTGTVLLQLENTMQMSLKDLL
B2: Y365F (protein)
chain: MQLRNPELHLGCALALRFLALVSWDIPGARALDNGLARTPTMGWLHWERFMCNLDCQEEPDSCISEKLFMEMAELMVSEGWKDAGYEYLCIDDCWMAPQRDSEGRLQADPQRFPHGIRQLANYVHSKGLKLGIYADVGNKTCAGFPGSFGYYDIDAQTFADWGVDLLKFDGCYCDSLENLADGYKHMSLALNRTGRSIVYSCEWPLYMWPFQKPNYTEIRQYCNHWRNFADIDDSWKSIKSILDWTSFNQERIVDVAGPGGWNDPDMLVIGNFGLSWNQQVTQMALWAIMAAPLFMSNDLRHISPQAKALLQDKDVIAINQDPLGKQGYQLRQGDNFEVWERPLSGLAWAVAMINRQEIGGPRSFTIAVASLGKGVACNPACFITQLLPVKRKLGFYEWTSRLRSHINPTGTVLLQLENTMQMSLKDLL
B3: Y365S (protein)
chain: MQLRNPELHLGCALALRFLALVSWDIPGARALDNGLARTPTMGWLHWERFMCNLDCQEEPDSCISEKLFMEMAELMVSEGWKDAGYEYLCIDDCWMAPQRDSEGRLQADPQRFPHGIRQLANYVHSKGLKLGIYADVGNKTCAGFPGSFGYYDIDAQTFADWGVDLLKFDGCYCDSLENLADGYKHMSLALNRTGRSIVYSCEWPLYMWPFQKPNYTEIRQYCNHWRNFADIDDSWKSIKSILDWTSFNQERIVDVAGPGGWNDPDMLVIGNFGLSWNQQVTQMALWAIMAAPLFMSNDLRHISPQAKALLQDKDVIAINQDPLGKQGYQLRQGDNFEVWERPLSGLAWAVAMINRQEIGGPRSSTIAVASLGKGVACNPACFITQLLPVKRKLGFYEWTSRLRSHINPTGTVLLQLENTMQMSLKDLL
B4: Y365N (protein)
chain: MQLRNPELHLGCALALRFLALVSWDIPGARALDNGLARTPTMGWLHWERFMCNLDCQEEPDSCISEKLFMEMAELMVSEGWKDAGYEYLCIDDCWMAPQRDSEGRLQADPQRFPHGIRQLANYVHSKGLKLGIYADVGNKTCAGFPGSFGYYDIDAQTFADWGVDLLKFDGCYCDSLENLADGYKHMSLALNRTGRSIVYSCEWPLYMWPFQKPNYTEIRQYCNHWRNFADIDDSWKSIKSILDWTSFNQERIVDVAGPGGWNDPDMLVIGNFGLSWNQQVTQMALWAIMAAPLFMSNDLRHISPQAKALLQDKDVIAINQDPLGKQGYQLRQGDNFEVWERPLSGLAWAVAMINRQEIGGPRSNTIAVASLGKGVACNPACFITQLLPVKRKLGFYEWTSRLRSHINPTGTVLLQLENTMQMSLKDLL
B5: S364P (protein)
chain: MQLRNPELHLGCALALRFLALVSWDIPGARALDNGLARTPTMGWLHWERFMCNLDCQEEPDSCISEKLFMEMAELMVSEGWKDAGYEYLCIDDCWMAPQRDSEGRLQADPQRFPHGIRQLANYVHSKGLKLGIYADVGNKTCAGFPGSFGYYDIDAQTFADWGVDLLKFDGCYCDSLENLADGYKHMSLALNRTGRSIVYSCEWPLYMWPFQKPNYTEIRQYCNHWRNFADIDDSWKSIKSILDWTSFNQERIVDVAGPGGWNDPDMLVIGNFGLSWNQQVTQMALWAIMAAPLFMSNDLRHISPQAKALLQDKDVIAINQDPLGKQGYQLRQGDNFEVWERPLSGLAWAVAMINRQEIGGPRPYTIAVASLGKGVACNPACFITQLLPVKRKLGFYEWTSRLRSHINPTGTVLLQLENTMQMSLKDLL
B6: Y365D (protein)
chain: MQLRNPELHLGCALALRFLALVSWDIPGARALDNGLARTPTMGWLHWERFMCNLDCQEEPDSCISEKLFMEMAELMVSEGWKDAGYEYLCIDDCWMAPQRDSEGRLQADPQRFPHGIRQLANYVHSKGLKLGIYADVGNKTCAGFPGSFGYYDIDAQTFADWGVDLLKFDGCYCDSLENLADGYKHMSLALNRTGRSIVYSCEWPLYMWPFQKPNYTEIRQYCNHWRNFADIDDSWKSIKSILDWTSFNQERIVDVAGPGGWNDPDMLVIGNFGLSWNQQVTQMALWAIMAAPLFMSNDLRHISPQAKALLQDKDVIAINQDPLGKQGYQLRQGDNFEVWERPLSGLAWAVAMINRQEIGGPRSDTIAVASLGKGVACNPACFITQLLPVKRKLGFYEWTSRLRSHINPTGTVLLQLENTMQMSLKDLL

Tested on: mutant form of α-Gal A expressed in HEK-293 cells
Test: HEK assay (GLP HEK / Migalastat Amenability Assay): α-Gal A activity in lysates of transiently transfected HEK-293 cells incubated with or without 10 μM migalastat
Format: cell-based, human
Details: for Absolute increase (% WT) / Relative increase: 10 μM migalastat versus baseline; for Baseline α-Gal A activity (% WT): absence of migalastat; for Baseline α-Gal A activity (% WT) / 10 μM migalastat α-Gal A activity (% WT): percentage of baseline wild-type α-Gal A activity; for Baseline α-Gal A activity (% WT) / Baseline α-Gal A activity / 10 μM migalastat α-Gal A activity / 10 μM migalastat α-Gal A activity (% WT): mean ± SEM; for Baseline α-Gal A activity / 10 μM migalastat α-Gal A activity: lysates of HEK-293 cells transiently transfected with the mutant form; for Baseline α-Gal A activity: incubated 5 days in absence of migalastat; for 10 μM migalastat α-Gal A activity: incubated 5 days with 10 μM migalastat; for 10 μM migalastat α-Gal A activity (% WT): with 10 μM migalastat, 5 days
Outline: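 Activity reported as 4-MU released (nmol/mg/hr), mean±SEM, from lysates of transiently transfected HEK-293 cells expressing mutant α-Gal A, cultured with or without 10 μM migalastat.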

Molecule	Absolute increase (% WT)	Relative increase	Baseline α-Gal A activity (% WT)	Baseline α-Gal A activity [nmol/mg/h]	10 μM migalastat α-Gal A activity [nmol/mg/h]	10 μM migalastat α-Gal A activity (% WT)
B1	40.0	1.3	127 ± 10.6	41263 ± 2389	53912 ± 3067	167 ± 14.8
B2	21.1	1.3	67.7 ± 5.1	19631 ± 2010	25395 ± 2160	88.8 ± 5.3
B3	18.4	1.4	49.4 ± 4.1	14346 ± 1563	19484 ± 1899	67.8 ± 4.9
B4	22.5	1.4	59.7 ± 1.7	19111 ± 869	26514 ± 1978	82.2 ± 4.5
B5	63.1	1.4	143.2 ± 13.7	48193 ± 4573	66731 ± 4698	206.4 ± 20
B6	19.7	1.6	31.3 ± 2.7	9119 ± 1027	14664 ± 1311	51 ± 3.5
